Measurements from US20230374150A1 (Memorial Sloan Kettering, published 2023).

Experiments:
[1] = target: T1, Human PSMA antigen (human, UniProt Q04609 44-750, limits assumed); experiment: SPR (Biacore), 37 C, antibody over immobilized PSMA
T1 construct: This is the antigen immobilised on the Biacore chip; also called FOLH1_HUMAN
Text: The calculated kinetic parameters derived from SPR are shown in FIG. 4C, showing distinct differences in affinities when compared to the chimeric and the original mouse antibody J591. Increased affinity of anti-PSMA antibodies should translate into higher potency, while lower affinity anti-PSMA antibodies into lower toxicity. This affinity modulation is achieved without altering the CDR sequences. Based on the binding kinetics, the clone having combination of J591_VL-1 and J591_VH-3, which has near identical binding kinetics to those of J591 chimeric antibody, was chosen to build the PSMA-BsAb (BC244) of the present technology. The amino acid sequences of the light chain (SEQ ID NO: 11) and the heavy chain (SEQ ID NO: 12) of the select clone are shown in FIG. 12. Mutation N297A was used to remove glycosylation, and K322A to minimize complement activation.

[2] = target: T1, Human PSMA antigen; experiment: SPR Biacore, immobilised human PSMA, 37 C, 1:1 fit
Method: (§1) PSMA-BsAb Biacore Settings. Human PSMA antigen was immobilized directly on Fc2 at 3000 RU, and cynomolgus PSMA (ACRO) on Fc4 at 3000 RU (Blank on Fc1 and Fc3 as controls). Abs were run through the system at 37° C., at concentrations of 250 and 500 nM, with association time 1 min, dissociation time 15 min. Regeneration was performed at 30 mM NaOH. All data were fitted with 1:1 model.

[3] = target: T2, cynomolgus PSMA (ACRO) (cynomolgus, UniProt A0A2K5VNZ0 44-750); experiment: SPR Biacore, immobilised cynomolgus PSMA, 37 C, 1:1 fit
T2 construct: Immobilised on the Biacore chip
Method: as §1

T1 sequence (Q04609 44-750 limits assumed): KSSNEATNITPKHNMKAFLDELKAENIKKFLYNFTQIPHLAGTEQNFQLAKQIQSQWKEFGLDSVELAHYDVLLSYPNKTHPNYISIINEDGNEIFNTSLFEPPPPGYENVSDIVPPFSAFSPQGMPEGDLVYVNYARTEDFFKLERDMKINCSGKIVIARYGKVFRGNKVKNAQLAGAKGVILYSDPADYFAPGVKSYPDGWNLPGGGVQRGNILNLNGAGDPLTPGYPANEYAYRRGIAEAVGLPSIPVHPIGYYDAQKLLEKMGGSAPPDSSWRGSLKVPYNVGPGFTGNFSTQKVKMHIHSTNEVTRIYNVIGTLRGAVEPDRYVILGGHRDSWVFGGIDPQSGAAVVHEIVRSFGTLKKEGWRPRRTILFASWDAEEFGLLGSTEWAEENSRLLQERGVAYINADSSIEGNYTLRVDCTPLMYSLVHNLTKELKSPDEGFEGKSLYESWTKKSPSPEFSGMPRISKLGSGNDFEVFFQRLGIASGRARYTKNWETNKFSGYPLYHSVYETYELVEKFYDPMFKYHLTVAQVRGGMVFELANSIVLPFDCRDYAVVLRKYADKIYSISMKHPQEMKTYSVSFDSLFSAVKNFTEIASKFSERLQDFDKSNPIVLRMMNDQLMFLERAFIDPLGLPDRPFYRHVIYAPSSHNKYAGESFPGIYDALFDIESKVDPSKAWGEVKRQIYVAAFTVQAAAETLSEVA

Binder | Kd [1] [nM] | fold-change KD relative to chimeric [1] [fold] | koff [1] [s⁻¹] | kon [1] [M⁻¹ s⁻¹] | Kd [2] [nM] | koff [2] [s⁻¹] | kon [2] [M⁻¹ s⁻¹] | t ½ [2] [min] | Kd [3] [nM] | koff [3] [s⁻¹] | kon [3] [M⁻¹ s⁻¹] | t ½ [3] [min]
huJ591 (J591_VH-2 + J591_VL-1) (antibody, human IgG1, V domains shown, One of the 9 huJ591 versions; Human IgG1 frameworks) VH: QVQLVQSGAEVKKPGASVKVSCKASGYTFTEYTMHWVRQAPGQGLEWMGNINPNNGGTTYNQKFQGRVTMTVDKSISTAYMELSRLRSDDTAVYYCAAGWNFDYWGQGTLVTVSS VL: DIQLTQSPSFLSASVGDRVTITCRASQDVGTALDWYQQKPGKAPKLLIYWASTLHSGVPSRFSGSGSGTEFTLTISSLQPEDFATYYCQQYNSYPLTFGQGTKLEIK | 3.54 | 17.2 | 0.000176 | 49700 | – | – | – | – | – | – | – | –
huJ591 (J591_VH-3 + J591_VL-3) (antibody, human IgG1, V domains shown, One of the 9 huJ591 versions; Human IgG1 frameworks) VH: QVQLVQSGAEVKKPGASVKVSCKASGYTFTEYTMHWVRQAPGQRLEWMGNINPNNGGTTYSQKFQGRVTITVDKSASTAYMELSSLRSEDTAVYYCAAGWNFDYWGQGTLVTVSS VL: DIVMTQSPSSLSASVGDRVTITCRASQDVGTALDWYQQKPGKAPELLIYWASSLHSGVPSRFRGSGSGTDFTLTISSVQPEDFATYYCQQYNSYPLTFGQGTKLEIK | 11.9 | 57.8 | 0.00057 | 47900 | – | – | – | – | – | – | – | –
huJ591 clone having combination of J591_VL-1 and J591_VH-3 (antibody, V domains shown, also called the select clone) VH: QVQLVQSGAEVKKPGASVKVSCKASGYTFTEYTMHWVRQAPGQRLEWMGNINPNNGGTTYSQKFQGRVTITVDKSASTAYMELSSLRSEDTAVYYCAAGWNFDYWGQGTLVTVSS VL: DIQLTQSPSFLSASVGDRVTITCRASQDVGTALDWYQQKPGKAPKLLIYWASTLHSGVPSRFSGSGSGTEFTLTISSLQPEDFATYYCQQYNSYPLTFGQGTKLEIKR | 1.67 | 8.1 | 9.69e-05 | 58200 | – | – | – | – | – | – | – | –
huJ591 (J591_VH-1 + J591_VL-1) (antibody, human IgG1, V domains shown, One of the 9 huJ591 versions made from three heavy and three light chain designs; Human IgG1 frameworks, expressed in CHO cells) VH: QVQLVQSGAEVKKPGASVKVSCKASGYTFTEYTMHWVRQAPGQGLEWMGNINPNNGGTTYAQKFQGRVTMTRDKSISTAYMELSRLRSDDTAVYYCAAGWNFDYWGQGTLVTVSS VL: DIQLTQSPSFLSASVGDRVTITCRASQDVGTALDWYQQKPGKAPKLLIYWASTLHSGVPSRFSGSGSGTEFTLTISSLQPEDFATYYCQQYNSYPLTFGQGTKLEIK | 3.32 | 16.1 | 0.000228 | 68600 | – | – | – | – | – | – | – | –
huJ591 (J591_VH-1 + J591_VL-3) (antibody, human IgG1, V domains shown, One of the 9 huJ591 versions; Human IgG1 frameworks) VH: QVQLVQSGAEVKKPGASVKVSCKASGYTFTEYTMHWVRQAPGQGLEWMGNINPNNGGTTYAQKFQGRVTMTRDKSISTAYMELSRLRSDDTAVYYCAAGWNFDYWGQGTLVTVSS VL: DIVMTQSPSSLSASVGDRVTITCRASQDVGTALDWYQQKPGKAPELLIYWASSLHSGVPSRFRGSGSGTDFTLTISSVQPEDFATYYCQQYNSYPLTFGQGTKLEIK | 3.55 | 17.2 | 0.000285 | 80500 | – | – | – | – | – | – | – | –
huJ591 (J591_VH-3 + J591_VL-2) (antibody, human IgG1, V domains shown, One of the 9 huJ591 versions; Human IgG1 frameworks) VH: QVQLVQSGAEVKKPGASVKVSCKASGYTFTEYTMHWVRQAPGQRLEWMGNINPNNGGTTYSQKFQGRVTITVDKSASTAYMELSSLRSEDTAVYYCAAGWNFDYWGQGTLVTVSS VL: DIQLTQSPSFLSASVGDRVTITCRASQDVGTALDWYQQKPGKAPKLLIYWASTRHSGVPSRFSGSGSGTEFTLTISSLQPEDFATYYCQQYNSYPLTFGQGTKLEIK | 2.54 | 12.3 | 0.000146 | 57400 | – | – | – | – | – | – | – | –
huJ591 (J591_VH-2 + J591_VL-3) (antibody, human IgG1, V domains shown, One of the 9 huJ591 versions; Human IgG1 frameworks) VH: QVQLVQSGAEVKKPGASVKVSCKASGYTFTEYTMHWVRQAPGQGLEWMGNINPNNGGTTYNQKFQGRVTMTVDKSISTAYMELSRLRSDDTAVYYCAAGWNFDYWGQGTLVTVSS VL: DIVMTQSPSSLSASVGDRVTITCRASQDVGTALDWYQQKPGKAPELLIYWASSLHSGVPSRFRGSGSGTDFTLTISSVQPEDFATYYCQQYNSYPLTFGQGTKLEIK | 3.48 | 16.9 | 0.000211 | 60600 | – | – | – | – | – | – | – | –
huJ591 (J591_VH-1 + J591_VL-2) (antibody, human IgG1, V domains shown, One of the 9 huJ591 versions; Human IgG1 frameworks) VH: QVQLVQSGAEVKKPGASVKVSCKASGYTFTEYTMHWVRQAPGQGLEWMGNINPNNGGTTYAQKFQGRVTMTRDKSISTAYMELSRLRSDDTAVYYCAAGWNFDYWGQGTLVTVSS VL: DIQLTQSPSFLSASVGDRVTITCRASQDVGTALDWYQQKPGKAPKLLIYWASTRHSGVPSRFSGSGSGTEFTLTISSLQPEDFATYYCQQYNSYPLTFGQGTKLEIK | 4.86 | 23.6 | 0.000379 | 77900 | – | – | – | – | – | – | – | –
huJ591 (J591_VH-2 + J591_VL-2) (antibody, human IgG1, V domains shown, One of the 9 huJ591 versions; Human IgG1 frameworks) VH: QVQLVQSGAEVKKPGASVKVSCKASGYTFTEYTMHWVRQAPGQGLEWMGNINPNNGGTTYNQKFQGRVTMTVDKSISTAYMELSRLRSDDTAVYYCAAGWNFDYWGQGTLVTVSS VL: DIQLTQSPSFLSASVGDRVTITCRASQDVGTALDWYQQKPGKAPKLLIYWASTRHSGVPSRFSGSGSGTEFTLTISSLQPEDFATYYCQQYNSYPLTFGQGTKLEIK | 4.81 | 23.3 | 0.000286 | 59400 | – | – | – | – | – | – | – | –
murine J591 (antibody, V domains shown, also called original mouse antibody J591; mouse J591) VH: EVQLQQSGPELVKPGTSVRISCKTSGYTFTEYTIHWVKQSHGKSLEWIGNINPNNGGTTYNQKFEDKATLTVDKSSSTAYMELRSLTSEDSAVYYCAAGWNFDYWGQGTTLTVSS VL: DIVMTQSHKFMSTSVGDRVSIICKASQDVGTAVDWYQQKPGQSPKLLIYWASTRHTGVPDRFTGSGSGTDFTLTITNVQSEDLADYFCQQYNSYPLTFGAGTMLDLKR | 6.39 | 31 | 0.000113 | 17700 | – | – | – | – | – | – | – | –
humanized anti-PSMAxCD3 BsAb BC243 (H2L3) (bispecific antibody, human IgG1, kappa, N297A, IgG(L)-scFv format, J591_VL-3 + J591_VH-2) light: DIVMTQSPSSLSASVGDRVTITCRASQDVGTALDWYQQKPGKAPELLIYWASSLHSGVPSRFRGSGSGTDFTLTISSVQPEDFATYYCQQYNSYPLTFGQGTKLEIKRTVAAPSVFIFPPSDEQLKSGTASVVCLLNNFYPREAKVQWKVDNALQSGNSQESVTEQDSKDSTYSLSSTLTLSKADYEKHKVYACEVTHQGLSSPVTKSFNRGECTSGGGGSGGGGSGGGGSQVQLVQSGGGVVQPGRSLRLSCKASGYTFTRYTMHWVRQAPGKCLEWIGYINPSRGYTNYNQKFKDRFTISRDNSKNTAFLQMDSLRPEDTGVYFCARYYDDHYSLDYWGQGTPVTVSSGGGGSGGGGSGGGGSGGGGSGGGGSGGGGSDIQMTQSPSSLSASVGDRVTITCSASSSVSYMNWYQQTPGKAPKRWIYDTSKLASGVPSRFSGSGSGTDYTFTISSLQPEDIATYYCQQWSSNPFTFGCGTKLQITR heavy: not shown | – | – | – | – | 1.6 | 0.000308 | 192000 | 37.5 | 3.58 | 0.000634 | 177000 | 18.2
humanized anti-PSMAxCD3 BsAb BC244a (H2L1) (bispecific antibody, human IgG1, kappa, N297A, IgG(L)-scFv format) light: DIQLTQSPSFLSASVGDRVTITCRASQDVGTALDWYQQKPGKAPKLLIYWASTLHSGVPSRFSGSGSGTEFTLTISSLQPEDFATYYCQQYNSYPLTFGQGTKLEIKRTVAAPSVFIFPPSDEQLKSGTASVVCLLNNFYPREAKVQWKVDNALQSGNSQESVTEQDSKDSTYSLSSTLTLSKADYEKHKVYACEVTHQGLSSPVTKSFNRGECTSGGGGSGGGGSGGGGSQVQLVQSGGGVVQPGRSLRLSCKASGYTFTRYTMHWVRQAPGKCLEWIGYINPSRGYTNYNQKFKDRFTISRDNSKNTAFLQMDSLRPEDTGVYFCARYYDDHYSLDYWGQGTPVTVSSGGGGSGGGGSGGGGSGGGGSGGGGSGGGGSDIQMTQSPSSLSASVGDRVTITCSASSSVSYMNWYQQTPGKAPKRWIYDTSKLASGVPSRFSGSGSGTDYTFTISSLQPEDIATYYCQQWSSNPFTFGCGTKLQITR heavy: not shown | – | – | – | – | 2.91 | 0.000444 | 152000 | 26 | 6.67 | 0.000781 | 117000 | 14.8
humanized anti-PSMAxCD3 BsAb BC245 (H3L3) (bispecific antibody, human IgG1, kappa, N297A, IgG(L)-scFv format, J591_VL-3 + J591_VH-3) light: DIVMTQSPSSLSASVGDRVTITCRASQDVGTALDWYQQKPGKAPELLIYWASSLHSGVPSRFRGSGSGTDFTLTISSVQPEDFATYYCQQYNSYPLTFGQGTKLEIKRTVAAPSVFIFPPSDEQLKSGTASVVCLLNNFYPREAKVQWKVDNALQSGNSQESVTEQDSKDSTYSLSSTLTLSKADYEKHKVYACEVTHQGLSSPVTKSFNRGECTSGGGGSGGGGSGGGGSQVQLVQSGGGVVQPGRSLRLSCKASGYTFTRYTMHWVRQAPGKCLEWIGYINPSRGYTNYNQKFKDRFTISRDNSKNTAFLQMDSLRPEDTGVYFCARYYDDHYSLDYWGQGTPVTVSSGGGGSGGGGSGGGGSGGGGSGGGGSGGGGSDIQMTQSPSSLSASVGDRVTITCSASSSVSYMNWYQQTPGKAPKRWIYDTSKLASGVPSRFSGSGSGTDYTFTISSLQPEDIATYYCQQWSSNPFTFGCGTKLQITR heavy: not shown | – | – | – | – | 1.06 | 0.000159 | 150000 | 72.7 | 2.49 | 0.000324 | 130000 | 35.7
